In patent JP2018058812A:

Target: バキュロウイルスを用いて作製したFlagタグ融合インフルエンザウィルスH1N1由来のリコンビナントヌクレオプロテイン(NP)タンパク質 (influenza A virus H1N1)

B1: 配列番号:08により表されるアミノ酸配列からなるVHH抗体 (VHH)
VHH: QVQLVESGGGLVQAGGSLRLSCAASRTIFNPNVMGWYRQAPGKQRELVADISLSGSTNYADSVKGRFTISRDNAKNTMYLQMNSLKPEDTAVYYCNTNAISGAPGRYWGQGTQVTVSS
Kd: 0.236 nM
